Test results as given in the supplement of paper PMC10065799, “High-throughput profiling of sequence recognition by tyrosine kinases and SH2 domains using bacterial peptide display” (eLife, 2023).

Key:
SHP2-C SH2 = assay: SH2 binding enrichment of the phosphorylated peptide, bacterial display (enrichment ratio); higher = better substrate or ligand; peptides without Tyr show the background
Grb2 SH2 = Grb2 SH2 (UniProt P62993); assay: as above
c-Src SH2 = assay: as above
Fer (mouse) = assay: phosphorylation enrichment, bacterial display (enrichment ratio); higher = better substrate or ligand; peptides without Tyr show the background
Jak2 = Jak2 (UniProt O60674); assay: as above
Chain of Jak2 (O60674 whole entry, looked up): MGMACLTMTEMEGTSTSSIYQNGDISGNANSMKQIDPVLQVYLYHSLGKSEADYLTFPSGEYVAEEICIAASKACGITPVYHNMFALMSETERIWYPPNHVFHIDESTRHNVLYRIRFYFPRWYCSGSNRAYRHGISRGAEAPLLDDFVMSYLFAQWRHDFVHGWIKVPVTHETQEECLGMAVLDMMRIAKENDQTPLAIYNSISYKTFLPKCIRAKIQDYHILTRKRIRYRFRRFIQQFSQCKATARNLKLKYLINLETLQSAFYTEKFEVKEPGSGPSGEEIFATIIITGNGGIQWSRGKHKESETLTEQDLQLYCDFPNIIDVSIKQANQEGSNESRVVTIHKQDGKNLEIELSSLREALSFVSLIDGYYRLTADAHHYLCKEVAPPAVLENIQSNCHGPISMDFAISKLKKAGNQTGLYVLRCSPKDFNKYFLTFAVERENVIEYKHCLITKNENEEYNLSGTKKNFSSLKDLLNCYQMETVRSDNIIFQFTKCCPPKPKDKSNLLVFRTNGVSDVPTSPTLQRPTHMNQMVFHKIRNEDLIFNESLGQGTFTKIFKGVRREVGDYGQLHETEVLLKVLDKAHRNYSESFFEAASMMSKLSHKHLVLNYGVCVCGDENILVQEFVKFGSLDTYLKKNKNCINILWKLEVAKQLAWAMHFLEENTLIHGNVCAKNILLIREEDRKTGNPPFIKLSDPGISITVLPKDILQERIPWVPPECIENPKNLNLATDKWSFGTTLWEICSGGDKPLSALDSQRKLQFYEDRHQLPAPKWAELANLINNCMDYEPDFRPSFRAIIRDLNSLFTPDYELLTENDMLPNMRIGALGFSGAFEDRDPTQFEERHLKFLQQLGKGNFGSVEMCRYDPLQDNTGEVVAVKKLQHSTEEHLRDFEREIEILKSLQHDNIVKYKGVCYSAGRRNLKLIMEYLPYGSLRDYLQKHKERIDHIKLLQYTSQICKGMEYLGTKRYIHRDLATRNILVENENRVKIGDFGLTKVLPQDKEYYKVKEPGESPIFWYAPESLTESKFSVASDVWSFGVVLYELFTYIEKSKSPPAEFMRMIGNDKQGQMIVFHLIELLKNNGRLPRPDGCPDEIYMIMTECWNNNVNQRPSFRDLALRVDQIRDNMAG

MERTK = MERTK (UniProt Q12866); assay: as above
Chain of MERTK (Q12866 whole entry, looked up): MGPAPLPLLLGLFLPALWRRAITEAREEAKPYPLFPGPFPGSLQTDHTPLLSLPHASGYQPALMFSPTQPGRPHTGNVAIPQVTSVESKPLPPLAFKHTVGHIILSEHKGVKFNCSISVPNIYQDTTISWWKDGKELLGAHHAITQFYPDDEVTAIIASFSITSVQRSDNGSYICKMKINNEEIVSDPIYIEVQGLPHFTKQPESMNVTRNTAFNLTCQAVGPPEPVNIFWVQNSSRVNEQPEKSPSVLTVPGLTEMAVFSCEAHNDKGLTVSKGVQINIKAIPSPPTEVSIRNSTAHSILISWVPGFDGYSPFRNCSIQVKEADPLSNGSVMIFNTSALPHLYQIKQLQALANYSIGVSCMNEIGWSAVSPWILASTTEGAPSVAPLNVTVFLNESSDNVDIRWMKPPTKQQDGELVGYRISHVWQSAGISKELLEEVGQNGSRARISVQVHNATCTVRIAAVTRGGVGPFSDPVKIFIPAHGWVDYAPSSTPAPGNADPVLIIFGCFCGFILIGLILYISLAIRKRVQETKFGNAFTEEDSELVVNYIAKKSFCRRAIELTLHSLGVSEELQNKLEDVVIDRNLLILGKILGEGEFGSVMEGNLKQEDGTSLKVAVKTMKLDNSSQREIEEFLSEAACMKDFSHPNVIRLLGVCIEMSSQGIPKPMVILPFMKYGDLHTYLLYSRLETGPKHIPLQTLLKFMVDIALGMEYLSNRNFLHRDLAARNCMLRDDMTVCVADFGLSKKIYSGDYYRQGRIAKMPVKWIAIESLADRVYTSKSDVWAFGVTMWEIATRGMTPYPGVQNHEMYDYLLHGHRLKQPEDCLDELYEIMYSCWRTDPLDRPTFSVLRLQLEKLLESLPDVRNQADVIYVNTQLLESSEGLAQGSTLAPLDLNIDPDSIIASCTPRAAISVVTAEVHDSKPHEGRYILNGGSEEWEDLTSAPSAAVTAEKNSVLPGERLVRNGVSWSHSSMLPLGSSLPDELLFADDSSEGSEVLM

FGFR3 = FGFR3 (UniProt P22607); assay: as above
Hck = Hck (UniProt P08631); assay: as above
Chain of Hck (P08631 whole entry, looked up): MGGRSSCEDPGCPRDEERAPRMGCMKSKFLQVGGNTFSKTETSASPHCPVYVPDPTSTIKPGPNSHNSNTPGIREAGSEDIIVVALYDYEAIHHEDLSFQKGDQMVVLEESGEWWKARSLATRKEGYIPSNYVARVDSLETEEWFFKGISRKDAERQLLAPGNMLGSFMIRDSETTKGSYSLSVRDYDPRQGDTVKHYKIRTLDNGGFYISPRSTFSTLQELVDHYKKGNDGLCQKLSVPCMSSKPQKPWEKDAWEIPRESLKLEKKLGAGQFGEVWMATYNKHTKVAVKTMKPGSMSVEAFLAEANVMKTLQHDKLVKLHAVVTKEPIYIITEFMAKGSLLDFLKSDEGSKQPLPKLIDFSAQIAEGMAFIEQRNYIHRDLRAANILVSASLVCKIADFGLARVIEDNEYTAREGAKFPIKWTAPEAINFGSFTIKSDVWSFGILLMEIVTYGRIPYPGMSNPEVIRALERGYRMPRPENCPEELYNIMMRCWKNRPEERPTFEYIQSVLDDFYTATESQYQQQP

Fes = Fes (UniProt P07332); assay: as above
c-Abl (mouse) = assay: as above
c-Src = assay: as above
AncSZ = assay: as above
FGFR1 = FGFR1 (UniProt P11362); assay: as above
EPHB1 = EPHB1 (UniProt P54762); assay: as above
EPHB2 = EPHB2 (UniProt P29323); assay: as above
Chain of EPHB2 (P29323 whole entry, looked up): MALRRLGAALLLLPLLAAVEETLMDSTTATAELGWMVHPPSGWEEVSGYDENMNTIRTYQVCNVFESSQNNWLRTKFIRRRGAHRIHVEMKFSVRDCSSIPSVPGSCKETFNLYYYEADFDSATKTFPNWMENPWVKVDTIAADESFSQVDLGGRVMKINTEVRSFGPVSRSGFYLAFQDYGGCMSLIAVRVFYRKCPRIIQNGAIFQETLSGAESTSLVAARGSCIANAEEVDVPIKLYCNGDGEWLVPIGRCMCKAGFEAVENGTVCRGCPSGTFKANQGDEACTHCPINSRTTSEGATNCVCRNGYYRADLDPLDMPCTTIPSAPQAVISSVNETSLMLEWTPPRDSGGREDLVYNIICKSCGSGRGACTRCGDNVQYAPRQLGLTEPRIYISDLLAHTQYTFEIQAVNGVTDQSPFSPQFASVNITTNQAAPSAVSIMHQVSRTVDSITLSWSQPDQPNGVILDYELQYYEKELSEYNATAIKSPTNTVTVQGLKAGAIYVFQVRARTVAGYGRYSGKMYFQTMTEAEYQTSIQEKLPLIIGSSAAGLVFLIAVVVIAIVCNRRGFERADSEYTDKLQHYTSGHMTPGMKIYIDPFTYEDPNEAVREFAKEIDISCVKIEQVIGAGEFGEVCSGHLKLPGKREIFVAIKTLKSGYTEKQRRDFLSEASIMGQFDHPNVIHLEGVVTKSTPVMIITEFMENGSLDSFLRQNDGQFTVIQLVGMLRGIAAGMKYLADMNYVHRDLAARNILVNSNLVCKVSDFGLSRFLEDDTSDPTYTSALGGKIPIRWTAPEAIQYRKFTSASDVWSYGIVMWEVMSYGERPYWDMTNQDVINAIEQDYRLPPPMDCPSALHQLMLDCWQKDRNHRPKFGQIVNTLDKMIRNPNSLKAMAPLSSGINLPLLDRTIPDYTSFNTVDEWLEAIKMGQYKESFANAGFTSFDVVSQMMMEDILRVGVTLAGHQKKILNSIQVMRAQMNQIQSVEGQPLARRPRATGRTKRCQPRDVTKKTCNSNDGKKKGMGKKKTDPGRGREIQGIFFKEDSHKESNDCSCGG

Fyn = Fyn (UniProt P06241); assay: as above
Chain of Fyn (P06241 whole entry, looked up, the tested form may be a part): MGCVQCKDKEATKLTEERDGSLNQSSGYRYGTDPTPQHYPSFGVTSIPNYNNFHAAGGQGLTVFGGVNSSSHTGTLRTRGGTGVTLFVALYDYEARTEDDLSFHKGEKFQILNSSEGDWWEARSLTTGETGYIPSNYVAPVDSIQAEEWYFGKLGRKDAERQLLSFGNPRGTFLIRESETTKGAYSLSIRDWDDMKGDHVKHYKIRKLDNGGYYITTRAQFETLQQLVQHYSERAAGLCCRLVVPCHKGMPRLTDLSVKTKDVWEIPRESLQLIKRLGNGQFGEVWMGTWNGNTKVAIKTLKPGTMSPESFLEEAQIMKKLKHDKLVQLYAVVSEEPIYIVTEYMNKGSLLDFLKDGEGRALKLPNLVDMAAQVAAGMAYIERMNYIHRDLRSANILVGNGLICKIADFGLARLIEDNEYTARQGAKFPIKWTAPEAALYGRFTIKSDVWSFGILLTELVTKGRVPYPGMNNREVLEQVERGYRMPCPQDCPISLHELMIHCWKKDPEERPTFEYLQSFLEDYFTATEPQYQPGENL
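For SH2 binding enrichment of the phosphorylated peptide, bacterial display in this document: peptide library displayed on the E. coli surface as eCPX fusions, selected cells deep-sequenced, score is each peptide's frequency after selection divided by its frequency in the input.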
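For phosphorylation enrichment, bacterial display in this document: 11-residue human phosphosite peptides and single-mutation variants displayed on the E. coli surface, counted by deep sequencing, each peptide's frequency after selection divided by its frequency in the unselected input library; frequency after pTyr selection over input frequency; kinase dosed for 20-30% of maximal phosphorylation in three min.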

Chain of Grb2 SH2 (P62993 whole entry, looked up): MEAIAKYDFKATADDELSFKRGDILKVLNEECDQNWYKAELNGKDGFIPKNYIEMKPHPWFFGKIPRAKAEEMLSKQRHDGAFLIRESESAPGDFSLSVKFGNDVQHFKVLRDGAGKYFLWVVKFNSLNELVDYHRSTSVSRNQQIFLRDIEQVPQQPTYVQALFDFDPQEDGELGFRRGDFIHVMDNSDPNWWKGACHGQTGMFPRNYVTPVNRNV

| Sequence | SH2 binding enrichment (SHP2-C SH2) | SH2 binding enrichment (Grb2 SH2) | SH2 binding enrichment (c-Src SH2) | phosphorylation enrichment (Fer (mouse)) | phosphorylation enrichment (Jak2) | phosphorylation enrichment (MERTK) | phosphorylation enrichment (FGFR3) | phosphorylation enrichment (Hck) | phosphorylation enrichment (Fes) | phosphorylation enrichment (c-Abl (mouse)) | phosphorylation enrichment (c-Src) | phosphorylation enrichment (AncSZ) | phosphorylation enrichment (FGFR1) | phosphorylation enrichment (EPHB1) | phosphorylation enrichment (EPHB2) | phosphorylation enrichment (Fyn) |
| --- | --- | --- | --- | --- | --- | --- | --- | --- | --- | --- | --- | --- | --- | --- | --- | --- |
| PEVSGYCHFAD [TG_Y234_C237Y_YF] | 0.631 | 0.883 | 1.32 | 0.517 | 1.15 | 0.384 | 0.773 | 0.639 | 1.39 | 0.937 | 0.572 | 1.29 | 0.709 | 0.745 | 0.782 | 0.532 |
| EASGIYVKSVI [PATJ_Y396_I400V] | 0.55 | 0.783 | 0.481 | 0.481 | 0.97 | 0.366 | 0.741 | 0.501 | 1.1 | 0.716 | 0.462 | 0.958 | 0.47 | 0.543 | 0.465 | 0.433 |
| AGQEKYSAMRD [HRAS_Y64_E63K] | 0.639 | 0.703 | 0.496 | 0.37 | 0.618 | 0.312 | 0.498 | 0.423 | 0.837 | 0.604 | 0.416 | 0.574 | 0.324 | 0.318 | 0.424 | 0.427 |
| HSLRDYKEALM [ADA2_Y337_H335R] | 0.699 | 0.933 | 0.467 | 0.44 | 1.03 | 0.649 | 0.881 | 0.679 | 1.4 | 0.751 | 0.56 | 0.746 | 0.601 | 0.775 | 0.45 | 0.388 |
| MRALIYNSSTA [PLEKHA7_Y243] | 0.486 | 0.794 | 0.402 | 0.424 | 0.8 | 0.465 | 0.493 | 0.647 | 0.772 | 0.741 | 0.724 | 0.834 | 0.448 | 0.507 | 0.453 | 0.622 |
| KILAKYLLETS [NAMPT_Y175] | 0.614 | 0.766 | 0.513 | 0.411 | 0.645 | 0.385 | 0.421 | 0.368 | 0.664 | 0.571 | 0.395 | 0.66 | 0.353 | 0.431 | 0.412 | 0.35 |
| IGVDSYSVCKR [RPS6KA3_Y433_G431D] | 0.627 | 0.908 | 0.971 | 0.366 | 0.462 | 0.338 | 0.405 | 0.387 | 0.577 | 0.417 | 0.322 | 0.537 | 0.381 | 0.402 | 0.418 | 0.347 |
| PSARTYCYKQE [KLHDC9_Y175] | 0.815 | 0.768 | 0.643 | 0.666 | 0.762 | 0.736 | 0.907 | 0.506 | 1.29 | 0.63 | 0.439 | 1.14 | 0.454 | 0.647 | 0.721 | 0.533 |
| GEKKAYVRLAP [RPL23A_Y137] | 0.851 | 1.12 | 0.667 | 0.398 | 0.468 | 0.373 | 0.43 | 0.337 | 0.606 | 0.628 | 0.296 | 0.548 | 0.425 | 0.363 | 0.323 | 0.37 |
| GIVEDYRPPVF [ACVRL1_Y421_F425V_YF] | 0.738 | 0.726 | 0.353 | 0.422 | 0.625 | 0.445 | 0.51 | 0.39 | 0.777 | 0.63 | 0.414 | 0.767 | 0.414 | 0.372 | 0.46 | 0.455 |
| SVCPDYDLCSV [SQSTM1_Y148] | 1.07 | 1.29 | 1.13 | 1.89 | 1.3 | 0.524 | 0.901 | 0.678 | 1.3 | 0.98 | 0.87 | 1.65 | 0.661 | 0.788 | 0.959 | 0.689 |
| RTEAQYRFIYM [PTPN11_Y511_Q506R] | 0.642 | 0.702 | 0.392 | 0.794 | 1.5 | 0.691 | 1.1 | 0.635 | 1.72 | 1.44 | 0.754 | 1.2 | 0.683 | 0.724 | 0.9 | 0.423 |
| RQGKDYVGAIP [KDR_Y951] | 0.79 | 0.818 | 0.488 | 0.361 | 0.656 | 0.485 | 0.409 | 0.452 | 0.832 | 0.636 | 0.487 | 0.705 | 1.44 | 0.471 | 0.442 | 0.552 |
| ETKKQYNSFTF [TMED3_Y85_D86N_YF] | 0.636 | 0.65 | 0.411 | 0.513 | 0.719 | 0.396 | 0.454 | 0.417 | 0.711 | 0.561 | 0.399 | 0.64 | 0.366 | 0.442 | 0.475 | 0.432 |
| INMKKYCKKDF [NTN1_Y490_YF] | 1.13 | 0.953 | 0.807 | 0.572 | 0.689 | 0.659 | 0.757 | 0.437 | 0.948 | 0.734 | 0.491 | 0.854 | 0.56 | 0.45 | 0.522 | 0.438 |
| PSQRRYLYYYS [PTEN_Y174_V175L] | 1.48 | 0.84 | 1.06 | 0.92 | 1.99 | 4.1 | 0.937 | 0.737 | 1.4 | 0.659 | 0.64 | 1.77 | 0.873 | 0.616 | 0.697 | 1.04 |
| MSRYIYSTDYY [NTRK1_Y676_D674Y] | 1.82 | 0.906 | 1.53 | 1.89 | 2.09 | 12.3 | 6.27 | 5.21 | 1.41 | 0.879 | 7.15 | 2.16 | 8.47 | 8.88 | 11.4 | 6.8 |

| Sequence | SH2 binding enrichment (SHP2-C SH2) | SH2 binding enrichment (Grb2 SH2) | SH2 binding enrichment (c-Src SH2) | phosphorylation enrichment (Fer (mouse)) | phosphorylation enrichment (Jak2) | phosphorylation enrichment (MERTK) | phosphorylation enrichment (FGFR3) | phosphorylation enrichment (Hck) | phosphorylation enrichment (Fes) | phosphorylation enrichment (c-Abl (mouse)) | phosphorylation enrichment (c-Src) | phosphorylation enrichment (AncSZ) | phosphorylation enrichment (FGFR1) | phosphorylation enrichment (EPHB1) | phosphorylation enrichment (EPHB2) | phosphorylation enrichment (Fyn) |
| --- | --- | --- | --- | --- | --- | --- | --- | --- | --- | --- | --- | --- | --- | --- | --- | --- |
| TVINKYQGKLF [HGD_Y249] | 0.811 | 0.838 | 0.504 | 0.372 | 0.545 | 0.398 | 0.401 | 0.447 | 0.596 | 0.513 | 0.449 | 0.514 | 0.473 | 0.336 | 0.436 | 0.414 |
| GIVEDYRPPFY [ACVRL1_Y421] | 0.813 | 0.731 | 0.466 | 0.457 | 0.831 | 0.406 | 0.633 | 0.427 | 0.942 | 0.735 | 0.434 | 0.981 | 0.445 | 0.522 | 0.502 | 0.49 |
| HFGCVYFGTLL [MET_Y1093_H1094Y_YF] | 0.714 | 0.857 | 0.535 | 0.458 | 1.18 | 0.528 | 1.51 | 0.763 | 1.23 | 0.695 | 3.7 | 1.77 | 1.01 | 0.917 | 0.699 | 0.899 |
| VVFIKYLPEWT [PSEN1_Y240_L235V] | 1.64 | 1.64 | 1.04 | 0.538 | 1.22 | 0.343 | 0.773 | 0.44 | 1.23 | 0.81 | 0.414 | 1.01 | 0.424 | 0.595 | 0.532 | 0.335 |
| GEIQEYGAPLD [ABCC1_Y1508_S1512L] | 0.734 | 0.822 | 0.454 | 0.528 | 1.03 | 0.467 | 0.798 | 0.485 | 1.09 | 0.743 | 0.485 | 1.15 | 0.598 | 0.74 | 0.716 | 0.514 |
| RLVTRYIYNRE [HLA-DQB1_Y62_Y58L] | 0.906 | 0.836 | 0.39 | 0.408 | 0.493 | 0.507 | 0.739 | 0.424 | 0.822 | 0.447 | 0.532 | 0.697 | 0.86 | 0.443 | 0.481 | 0.673 |
| EIVYVYVKKRS [DNAI2_Y7] | 0.805 | 0.687 | 0.483 | 0.465 | 1.01 | 0.377 | 0.675 | 0.538 | 1.1 | 0.64 | 0.399 | 1.29 | 0.52 | 0.555 | 0.57 | 0.354 |
| IDDNQYAFLKA [HNF4A_Y286_E285Q_YF] | 0.631 | 0.677 | 0.803 | 0.852 | 0.709 | 0.84 | 1.61 | 1.64 | 0.839 | 1.02 | 0.553 | 0.823 | 2.5 | 0.494 | 0.487 | 0.604 |
| LSQDVYEEDSY [RET_Y900_R897Q] | 0.555 | 1.1 | 0.633 | 0.835 | 1.76 | 0.584 | 1.04 | 0.497 | 1.71 | 1.13 | 0.856 | 1.53 | 0.695 | 0.966 | 1.19 | 0.782 |
| GGCQEYTGAPY [NAXD_Y85] | 0.748 | 0.935 | 0.608 | 0.524 | 0.83 | 0.409 | 0.843 | 0.577 | 1.06 | 0.699 | 0.52 | 1.35 | 0.627 | 0.636 | 0.587 | 0.525 |
| TRFDEYLEVTK [MAP1A_Y2217_H2214Y_YF] | 0.78 | 0.814 | 0.528 | 0.501 | 1.25 | 0.819 | 0.823 | 0.619 | 1.22 | 0.731 | 0.444 | 1.32 | 0.949 | 0.789 | 0.723 | 0.571 |
| CTTIHYNYMYN [TP53_Y234_C238Y] | 0.887 | 0.843 | 1.1 | 1.21 | 0.91 | 1 | 0.844 | 0.563 | 1.22 | 0.684 | 0.543 | 1.12 | 0.877 | 0.945 | 0.69 | 0.507 |
| KHMADYPDYKY [SOX11_Y113] | 0.847 | 0.844 | 0.519 | 0.42 | 0.442 | 0.322 | 0.632 | 0.401 | 0.616 | 0.404 | 0.4 | 0.642 | 0.453 | 0.458 | 0.471 | 0.407 |
| HFVDEYDLTIE [KRAS_Y32_P34L] | 0.847 | 0.874 | 0.633 | 0.841 | 2.13 | 0.812 | 1.14 | 0.749 | 2.16 | 1.4 | 0.922 | 2.56 | 0.752 | 0.711 | 0.423 | 0.811 |
| TTKAKYKTPIY [PLD2_Y573_T577I] | 0.775 | 0.908 | 0.793 | 0.459 | 0.587 | 0.574 | 0.596 | 0.789 | 0.928 | 0.695 | 0.541 | 0.823 | 0.46 | 0.542 | 0.46 | 0.771 |
| RKEAQYMLENE [SLC16A6_Y224] | 0.791 | 0.8 | 0.703 | 0.445 | 1.22 | 0.619 | 0.827 | 0.803 | 1.32 | 0.997 | 0.899 | 1.52 | 0.503 | 0.605 | 0.523 | 0.642 |
